Article PMC9594044

Target: PtTamH (Pseudoalteromonas tunicata)
Experiment: SEC; size exclusion chromatography of purified recombinant PtTamH after IMAC; retention volume corresponds to >200 kDa

PtTamH (enzyme) showed a stoichiometry N of 2.
